Test results taken from patent US5633227A, “Secretory leukocyte protease inhibitor as an inhibitor of tryptase” (Miles, Inc., priority 1994, dated 1997).
Values joined by “and” are separate entries in the source; they are usually repeats but may differ in a detail not shown here. Equal entries are not always repeated. Where two headings read alike, the source gives them in different places.

Tests used:
[1] = test system: human mast cell tryptase; experiment: VIP assay for tryptase activity (Dns-VIP hydrolysis, HPLC/fluorescence, Dixon plot); type: biochemical; conditions: rate of loss of full-length VIP (1-28), 0.2 and 0.8 μM VIP, 37° C., read-out: Ki for inhibition of tryptase degradation of full length Dns-VIP
Description: In a typical assay, mast cell tryptase (12.5 pM) was incubated at 37° C. with dansyl-VIP (0.2-2 μM) in 100 mM Tris-HCl (pH 8.0) containing 1 μg/ml porcine mucosal heparin and 0.02% Triton X-100 in a final volume of 2.0 ml. To some samples, secretory leukocyte protease inhibitor was added to a final concentration of between 0 and 107 nM. The tryptase was pre-incubated with the SLPI, if added, for 5 min. at 37° C. before initiating the reaction by the addition of Dns-VIP. Aliquots (250 μl) were removed at 0, 2.5, 5.0, 7.5, 10, and 20 minutes to micro-vials (Sunbrokers) and the reaction terminated by the addition of TFA to a final concentration of 3% (v/v). The acidified reaction mixture was subjected to chromatography on a C-18 reverse-phase column (Vydac, 5 micron, 0.46×25 cm). Peptide hydrolysis was monitored by HPLC using a Hewlett Packard HP1090 unit complete with binary solvent delivery and autoinjection capability. Fluorescent detection (postcolumn) was performed with an inline Gilson Model 121 filter fluorimeter (excitation at 310-410 nm, emission at 480-520 nm). Dns-VIP fragments were separated from any unconverted Dns-VIP using a linear gradient of 69:31 (v/v) to 50:50 (v/v) C:D over 5.5 minutes (C=100 mM sodium acetate, pH 6.5 plus 0.2% sodium azide, D=80% ACN in water), with return to 69:31 (v/v) C:D at 6.5 minutes. Chromatography was performed at 1.0 ml/min at 25° C. […]

[2] = test system: tryptase; experiment: GPK-AMC assay for tryptase activity (Dixon plot); type: biochemical, human; conditions: Table V footnote
Description: Tryptase activity was measured according to the procedure of Schwartz, et al., J. Biol. Chem., 261, 7372-7379 (1986) , with minor modifications, using Gly-Pro-Lys-Aminomethylcoumarin (GPK-AMC) as a substrate. The reaction was performed in assay buffer (0.1M Tris, pH 8.0, 10 μg/ml heparin) at room temperature in a 96-well microtiter plate (Perkin-Elmer, Norwalk, Conn.). The amount of coumarin produced by tryptase was determined by measuring the fluorescence (ex=372 nm, em=432 nm) on a Perkin-Elmer LS-50B fluorimeter equipped with a plate reader. 50 μl of tryptase (final concentration of 333 pM) was mixed with either 50 μl of the sample to be tested or with assay buffer and incubated for 5 min. at room temperature. […] The fluorescence intensity was measured every 5 minutes. For samples that were being tested for modulators of tryptase activity, the % inhibition for each fraction was determined by:
Inhibitory activity against tryptase and bovine trypsin was measured using Gly-Pro-Lys-aminomethylcoumarin as a substrate. […] The amount of coumarin produced was determined by measuring the fluorescence (ex=370 nm, em=432 nm) on a Perkin-Elmer LS-50B fluorimeter. […] The reaction was started by the addition of the substrate GPK-AMC (20 or 40 μM final) and the increase in fluorescence was measured over a 2 minute period. […]

B1: secretory leukocyte protease inhibitor (protein)
chain: SGKSFKAGVCPPKKSAQCLRYKKPECQSDWQCPGKKRCCPDTCGIKCLDPVDTPNPTRRKPGKCPVTYGQCLMLNPPNFCEMDGQCKRDLKCCMGMCGKSCVSPVKA
[1]; listed as Full SLPI
  Ki: 8 nM
[1]
  Ki: 8 nM and ~8 nM
[2]
  Response in GPK-AMC tryptase assay: biphasic response
